Assay results as given in the supplement of paper PMC10567573.

B1: ZNF263 (parent)
chain: PEASHLRFRRFRFQEAAGPREALS
B2: LOXL2 (parent)
chain: FSPDGPSRFRKAYKPEQPLVRLRG

Variants of: B1
Assay: protein stability index of a GFP-peptide fusion (GPS, HEK-293T) (PSI 1-6); higher = more stable
Conditions: c terminus: a fixed tail appended
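Note: lentivirally expressed fusions sorted by FACS into six bins by GFP to DsRed ratio, PSI derived from sequencing read proportions per bin multiplied by bin number.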

Protein stability index of substitutions, site by site:
G18: L 2.21 | A 2.27 | M 2.7 | T 2.97 | D 2.64 | K 2.84 | R 2.65 | S 2.96 | C 2.67 | E 3.44 | I 2.35 | V 2.38 | H 2.98 | Q 2.81 | Y 2.14 | P 3.36 | N 2.83 | F 2.26 | W 1.88
L23: C 2.7 | M 2.45 | D 3.75 | A 3.44 | E 3.5 | I 2.48 | N 3.15 | K 3.35 | G 3.04 | P 2.9 | R 3.11 | V 2.93 | S 3.28 | H 3.05 | Y 1.71 | W 1.91 | F 2.58 | T 2.84 | Q 2.97
S24: M 2.19 | D 3.06 | H 2.68 | L 2.65 | G 2.3 | Q 2.49 | C 2.42 | W 2.37 | V 2.2 | P 2.57 | E 2.79 | T 2.22 | Y 2.37 | N 3.28 | F 2.07 | K 2.76 | I 2.52 | A 2.28 | R 2.69
P19: N 2.63 | W 2.04 | L 1.95 | C 2.21 | A 2.71 | Q 3.18 | R 2.71 | K 2.73 | M 2.8 | H 2.73 | D 2.8 | I 2.04 | V 2.21 | Y 1.69 | E 3.39 | G 3.11 | F 1.76 | S 2.87 | T 3.26
E21: S 2.74 | Q 3.03 | P 2.89 | C 2.14 | H 2.84 | G 2.4 | N 2.71 | I 2.04 | K 2.45 | W 2.01 | M 2.98 | V 1.85 | T 2.66 | D 2.54 | A 2.56 | R 2.87 | F 2.34 | Y 2.58 | L 2.41
R20: C 2.21 | Q 2.7 | G 2.25 | N 2.99 | E 3.35 | M 2.21 | L 2.29 | F 1.62 | D 2.9 | V 2.65 | P 2.24 | H 2.4 | T 2.65 | A 3.17 | W 1.49 | I 2.48 | Y 1.49 | K 2.38 | S 2.58
A17: Q 2.75 | Y 2.04 | N 2.78 | P 2.55 | T 2.61 | W 2.69 | F 1.88 | M 2.1 | G 2.58 | K 2.94 | I 2.15 | S 2.54 | H 2.33 | L 2.21 | R 2.15 | V 2.55
A22: L 2.51 | Q 2.78 | K 2.77 | M 2.37 | Y 2.29 | W 2.03 | C 2.65 | N 2.87 | T 2.74 | F 2.6 | D 3.38 | P 3.7 | V 2.15 | E 3.15 | R 2.8 | I 2.28 | G 2.98 | S 2.77 | H 2.57

Variants of: B2
Assay: as above
Conditions: c terminus: a fixed tail appended

Protein stability index, by site and new letter:
S7: G 2.2 | R 2.05 | Q 2.32 | A 1 | V 1.64 | K 1.94 | P 2.18 | E 2.01 | I 2.58 | D 1.69 | Y 2.62 | T 1.49 | H 2.54 | F 2.09 | M 1.96 | C 3.07 | L 4 | N 2.89
R8: K 1.27 | E 1.81 | Y 2.66 | Q 2.42 | G 2.02 | L 1.5 | D 2.31 | V 2.88 | T 2.1 | N 1.71 | F 2.75 | I 4.19 | H 2.23 | P 2.76 | W 3.95 | A 2.89 | S 2.66
P3: N 1.73 | R 2.12 | C 1.97 | A 1.79 | E 1.97 | Y 2.13 | L 1.96 | S 2.31 | W 1.66 | H 1.9 | V 2.6 | D 2 | Q 2.17 | M 2.33 | I 2.26 | F 2.41 | T 2.21 | K 1.71
R10: Y 1.98 | K 1.75 | Q 1.99 | M 2.1 | L 1.97 | P 2.14 | V 2.46 | S 3.35 | H 1.02 | N 1.94 | I 2.8 | D 2.2 | F 4 | G 1.78 | E 2.5 | C 3.46
S2: R 2.96 | V 2.07 | K 3.23 | G 2.11 | M 2.37 | L 1.92 | W 1.84 | H 2.68 | T 3.36 | N 2.01 | E 3.62 | Y 2.36 | D 3.05 | F 2.48 | Q 1.22 | P 1.97
D4: W 2.58 | F 1.66 | V 2.38 | A 1.62 | L 1.78 | G 1.98 | I 1.71 | T 2.01 | P 1.07 | M 1.71 | E 2.44 | H 1.41 | N 1.73 | S 1.52 | Q 2.57 | C 2.21 | Y 2.82 | K 1.97
F1: E 3.56 | L 4.19 | K 3.11 | H 3.79 | I 2.95 | D 3.9 | N 3.98 | Y 1.83 | P 4.03 | Q 3.85 | S 3.92 | G 3.2 | C 3.23 | A 2.9 | M 2.95 | W 3.12 | T 3.33 | R 4.12 | V 3.65
G5: Y 1.83 | N 2.66 | A 1.47 | K 2.17 | L 2.02 | S 2.38 | C 2.03 | E 2.35 | Q 2.33 | D 1.62 | M 1.69 | V 1.59 | R 1.74 | P 2.21 | T 1.92 | H 2.65 | F 2.33 | I 2.51
P6: N 1.8 | E 2 | G 1.54 | A 2.22 | H 3.98 | M 1.56 | Q 2.16 | I 2.52 | T 1.88 | Y 2.16 | D 1.63 | L 3.07 | K 1.98
F9: G 3.03 | H 2.81 | T 2.27 | R 2.58 | N 2.85 | C 2.78 | E 3.71 | Q 3.94 | W 2.45 | M 2.56 | Y 3.04 | D 3.29 | K 2.58 | V 2.05 | A 2.52 | I 2.23 | L 2.01 | S 2.56 | P 3.29
K11: G 2.27 | H 1.64 | F 2.21 | D 1.28 | E 3.54 | Q 3.17 | R 2.72 | L 2.31 | I 1.76 | M 2.98 | P 2.41 | S 1.62 | N 2.7
